Experimental data taken from patent US20150203577A1 (Chugai, published 2015).
Substitutions are numbered along the chain they refer to.

T1: mouse FcγRIII (mouse, UniProt P08508 31-215)
T1 construct: Extracellular domain with C-terminal His tag; also called mFcγRIII; mFcgRIII
T1 chain: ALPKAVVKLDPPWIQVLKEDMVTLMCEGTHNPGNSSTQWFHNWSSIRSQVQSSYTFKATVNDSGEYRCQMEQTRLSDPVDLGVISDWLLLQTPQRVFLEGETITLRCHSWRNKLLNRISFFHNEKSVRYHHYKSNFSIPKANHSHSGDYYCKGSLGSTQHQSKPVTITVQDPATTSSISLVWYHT

T2: mouse FcγRII (mouse, UniProt P08101 30-210)
T2 construct: Extracellular domain with C-terminal His tag; also called mFcγRII; mFcgRII
T2 sequence: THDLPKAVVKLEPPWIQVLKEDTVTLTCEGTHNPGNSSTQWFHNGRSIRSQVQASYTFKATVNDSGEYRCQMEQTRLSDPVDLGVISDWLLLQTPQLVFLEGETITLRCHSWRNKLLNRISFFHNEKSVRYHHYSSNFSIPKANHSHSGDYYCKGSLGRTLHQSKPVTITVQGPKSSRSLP

B1: MB788 (antibody, mouse IgG1, kappa)
heavy: QVQLQESGPGLVKPSETLSLTCAVSGHSISHDHAWSWVRQPPGEGLEWIGFISYSGITNYNPSLQGRVTISRDNSKNTLYLQMNSLRAEDTAVYYCARSLARTTAMDYWGEGTLVTVSSAKTTPPSVYPLAPGSAAQTNSMVTLGCLVKGYFPEPVTVTWNSGSLSSGVHTFPAVLQSDLYTLSSSVTVPSSTWPSETVTCNVAHPASSTKVDKKIVPRDCGCKPCICEPNEVELVFIFPPKPKDVLTITLTPKVTCVVVDISKDDPEVQFSWFVDDVEVHTAQTQPREELFNSTFRSVSELPIMHQDWLNGKEFKCRVDSAAFPAPIERTISKTKGRPKAPQVYTIPPPKEQMAKDKVSLTCMITDFFPEDITVEWQWNGQPAENYKNTQPIMDTDGSYFVYSKLNVQKSNWEAGNTFTCSVLHEGLHNHHTEKSLSHSPGK
light: not shown
notes: CH name; VH H237 + CH, L chain MRAL-k0; copies: 2 + 2
B2: MB823 (antibody, mouse IgG1, kappa)
heavy: B1 heavy with L291Q, D320N, A322D, P327F, R330K
light: not shown
notes: as for B1
B3: MB819 (antibody, mouse IgG1, kappa)
heavy: B1 heavy with L291Q, D320M, P327Y, R330K
light: not shown
notes: as for B1
B4: MB809 (antibody, mouse IgG1, kappa)
heavy: B1 heavy with D320N, P327F, R330K
light: not shown
notes: as for B1
B5: MB789 (antibody, mouse IgG1, kappa)
heavy: B1 heavy with D320N, A322D
light: not shown
notes: as for B1
B6: MB812 (antibody, mouse IgG1, kappa)
heavy: B1 heavy with L291Q, A323G, R330K
light: not shown
notes: as for B1
B7: MB811 (antibody, mouse IgG1, kappa)
heavy: B1 heavy with D320N, E329Y, R330K
light: not shown
notes: as for B1
B8: MB816 (antibody, mouse IgG1, kappa)
heavy: B1 heavy with L291Q, D320M, A322D, R330K
light: not shown
notes: as for B1
B9: MB790 (antibody, mouse IgG1, kappa)
heavy: B1 heavy with L291Q, A322D
light: not shown
notes: as for B1
B10: MB818 (antibody, mouse IgG1, kappa)
heavy: B1 heavy with L291Q, D320M, P327F, R330K
light: not shown
notes: as for B1
B11: MB810 (antibody, mouse IgG1, kappa)
heavy: B1 heavy with D320N, P327Y, R330K
light: not shown
notes: as for B1
B12: MB807 (antibody, mouse IgG1, kappa)
heavy: B1 heavy with D320M, R330K
light: not shown
notes: as for B1
B13: MB814 (antibody, mouse IgG1, kappa)
heavy: B1 heavy with L291Q, P327Y, R330K
light: not shown
notes: as for B1
B14: MB813 (antibody, mouse IgG1, kappa)
heavy: B1 heavy with L291Q, P327F, R330K
light: not shown
notes: as for B1
B15: MB820 (antibody, mouse IgG1, kappa)
heavy: B1 heavy with L291Q, D320M, E329Y, R330K
light: not shown
notes: as for B1
B16: MB791 (antibody, mouse IgG1, kappa)
heavy: B1 heavy with A322D
light: not shown
notes: as for B1
B17: MB824 (antibody, mouse IgG1, kappa)
heavy: B1 heavy with L291Q, D320N, A322D, P327Y, R330K
light: not shown
notes: as for B1
B18: MB821 (antibody, mouse IgG1, kappa)
heavy: B1 heavy with L291Q, D320M
light: not shown
notes: as for B1
B19: MB815 (antibody, mouse IgG1, kappa)
heavy: B1 heavy with L291Q, E329Y, R330K
light: not shown
notes: as for B1
B20: MB822 (antibody, mouse IgG1, kappa)
heavy: B1 heavy with L291Q, D320N, A322D, A323G, R330K
light: not shown
notes: as for B1
B21: MB817 (antibody, mouse IgG1, kappa)
heavy: B1 heavy with L291Q, D320M, A323G, R330K
light: not shown
notes: as for B1
B22: MB808 (antibody, mouse IgG1, kappa)
heavy: B1 heavy with D320N, A323G, R330K
light: not shown
notes: as for B1

Target: T1, mouse FcγRIII
Test: SPR (Biacore T200); KD of H237-mIgG1/MRAL-k0 / KD of variant

Row | relative mFcγRIII-binding activity (mIgG1 = 1) [fold] | Binder
1 | 0.59 | B1
2 | 0.49 | B2
3 | 0.32 | B3
4 | 0.44 | B4
5 | 0.82 | B5
6 | 0.68 | B6
7 | 0.43 | B7
8 | 0.65 | B8
9 | 0.7 | B9
10 | 0.29 | B10
11 | 0.52 | B11
12 | 0.49 | B12
13 | 0.34 | B13
14 | 0.3 | B14
15 | 0.33 | B15
16 | 1.1 | B16
17 | 0.56 | B17
18 | 0.45 | B18
19 | 0.3 | B19
20 | 0.93 | B20
21 | 0.52 | B21
22 | 0.78 | B22

The binders below were run against T2, mouse FcγRII in the same assay as above.

Row | relative mFcγRII-binding activity (mIgG1 = 1) [fold] | Binder
23 | 22.4 | B1
24 | 25 | B2
25 | 18.1 | B3
26 | 19 | B4
27 | 30.9 | B5
28 | 33.4 | B6
29 | 22.2 | B7
30 | 30.4 | B8
31 | 33.5 | B9
32 | 15.6 | B10
33 | 20.8 | B11
34 | 21.9 | B12
35 | 18 | B13
36 | 16.3 | B14
37 | 19.5 | B15
38 | 40.1 | B16
39 | 28 | B17
40 | 24.4 | B18
41 | 17.6 | B19
42 | 43.8 | B20
43 | 28.5 | B21
44 | 29.2 | B22

Target: T1, mouse FcγRIII
Test: SPR (Biacore T200); KD of H237-MB630/MRAL-k0 / KD of variant

Row | Relative mFcγRIII-binding activity (MB630 = 1) [fold] | Binder
45 | 3.46 | B1
46 | 2.13 | B2
47 | 1.4 | B3
48 | 1.92 | B4
49 | 4.79 | B5
50 | 2.93 | B6
51 | 1.87 | B7
52 | 2.84 | B8
53 | 4.09 | B9
54 | 1.25 | B10
55 | 2.24 | B11
56 | 2.11 | B12
57 | 1.48 | B13
58 | 1.29 | B14
59 | 1.43 | B15
60 | 6.43 | B16
61 | 2.45 | B17
62 | 1.96 | B18
63 | 1.3 | B19
64 | 4.02 | B20
65 | 2.27 | B21
66 | 3.4 | B22

The binders below were run against T2, mouse FcγRII in the same assay as above.

Row | Relative mFcγRII-binding activity (MB630 = 1) [fold] | Binder
67 | 2.06 | B1
68 | 1.9 | B2
69 | 1.38 | B3
70 | 1.44 | B4
71 | 2.84 | B5
72 | 2.54 | B6
73 | 1.69 | B7
74 | 2.31 | B8
75 | 3.08 | B9
76 | 1.19 | B10
77 | 1.58 | B11
78 | 1.67 | B12
79 | 1.37 | B13
80 | 1.24 | B14
81 | 1.49 | B15
82 | 3.7 | B16
83 | 2.13 | B17
84 | 1.86 | B18
85 | 1.34 | B19
86 | 3.33 | B20
87 | 2.17 | B21
88 | 2.22 | B22
